The values that follow come from patent publication US20230235039A1.

Sequences and labels used below:
B1: Tab1 (control antibody 1), mepolizumab (antibody, INN chains, looked up, V domains shown)
VH: QVTLRESGPALVKPTQTLTLTCTVSGFSLTSYSVHWVRQPPGKGLEWLGVIWASGGTDYNSALMSRLSISKDTSRNQVVLTMTNMDPVDTATYYCARDPPSSLLRLDYWGRGTPVTVSS
VL: DIVMTQSPDSLAVSLGERATINCKSSQSLLNSGNQKNYLAWYQQKPGQPPKLLIYGASTRESGVPDRFSGSGSGTDFTLTISSLQAEDVAVYYCQNVHSFPFTFGGGTKLEIK
B2: Tab2 (control antibody 2), reslizumab (antibody, INN chains, looked up, V domains shown)
VH: EVQLVESGGGLVQPGGSLRLSCAVSGLSLTSNSVNWIRQAPGKGLEWVGLIWSNGDTDYNSAIKSRFTISRDTSKSTVYLQMNSLRAEDTAVYYCAREYYGYFDYWGQGTLVTVSS
VL: DIQMTQSPSSLSASVGDRVTITCLASEGISSYLAWYQQKPGKAPKLLIYGANSLQTGVPSRFSGSGSATDYTLTISSLQPEDFATYYCQQSYKFPNTFGQGTKVEVK
B3: Fc fusion protein of anti-IL-5 single-domain antibody 4G8 (Fc fusion, not shown: a dimerising Fc or GST)
chain (part 1 of 2): QVQLVESGGGSVQAGGSLRLSCAASGITSSTSCMGWFRQSPGKEREGSLATIYDGAISYADSVKGRFTISVDNAKNILYLQMNNLKPEDTAMYYCAAAKYCMFWSDPSYWGQGTQVTVSS
chain (part 2 of 2): HHHHHH
B4: Fc fusion protein of anti-IL-5 single-domain antibody 2F7 (Fc fusion, not shown: a dimerising Fc or GST)
chain (part 1 of 2): QVQLVESGGGSVQAGGSLRLSCAASGITASTSCMGWFRQSPGKEREGSLATIYDGSTSYADSVKGRFTISVDNAKNILYLQMNNLKPADTAMYYCAAAKYCMFWSHPSYWGQGTQVTVSS
chain (part 2 of 2): HHHHHH
B5: humanized Fc-fused single-domain antibody 1B3-V4 (Fc fusion, not shown: a dimerising Fc or GST)
chain (part 1 of 2): QVQLVESGGGSVQAGGSLRLSCAASGITASTSCMGWFRQSPGKEREGSLATIYDASTSYADSVKGRFTISRDNAKNILYLQMNNLRAEDTAVYYCAAARYCMFWSHPSYWGQGTQVTVSS
chain (part 2 of 2): HHHHHH
B6: Fc fusion protein of anti-IL-5 single-domain antibody 2G6 (Fc fusion, not shown: a dimerising Fc or GST)
chain (part 1 of 2): QVQLVESGGGSVQAGGSLRLSCAASGITSSTSCMGWFRQSPGKEREGSLATIYDGNISYADSVKGRFTISVDNAKNILYLQMNNLKPEDTAMYYCAAAKYCMFWSDPSYWGQGTQVTVSS
chain (part 2 of 2): HHHHHH
B7: humanized Fc-fused single-domain antibody 1B3-V3 (Fc fusion, not shown: a dimerising Fc or GST)
chain (part 1 of 2): QVQLVESGGGSVQAGGSLRLSCAASGITASTSCMGWFRQSPGKEREGSLATIYDASTSYADSVKGRFTISVDNAKNILYLQMNNLKPEDTAMYYCAAARYCMFWSHPSYWGQGTQVTVSS
chain (part 2 of 2): HHHHHH
B8: Fc fusion protein of anti-IL-5 single-domain antibody 1B8 (Fc fusion, not shown: a dimerising Fc or GST)
chain (part 1 of 2): QVQLVESGGGSVQAGGSLRLSCAASGITASTSCMGWFRQSPGKEREGSLATIYDGSTSYADSVKGQFTISVDNAKNILYLQMNNLKPEDTAMYYCAAAKYCMFWSHPSYWGQGTQVTVSS
chain (part 2 of 2): HHHHHH
B9: humanized Fc-fused single-domain antibody 1B3-V5 (Fc fusion, not shown: a dimerising Fc or GST)
chain (part 1 of 2): QVQLVESGGGSVQAGGSLRLSCAASGITASTSCMGWFRQSPGKEREGSLATIYDGSTSYADSVKGRFTISRDNSKNILYLQMNNLRAEDTAVYYCAAARYCMFWSHPSYWGQGTQVTVSS
chain (part 2 of 2): HHHHHH
B10: Fc fusion protein of anti-IL-5 single-domain antibody 4H2 (Fc fusion, not shown: a dimerising Fc or GST)
chain (part 1 of 2): QVQLVESEGGSVQAGGSLRLSCAVSGITSSTACMGWFRQSPGKEREGSLATIYDGSISYADSVKGRFTISVDNAKNILYLQMNNLKPEDTAMYYCAAAKYCMFWSDPSYWGQGTQVTVSS
chain (part 2 of 2): HHHHHH
B11: Fc fusion protein of anti-IL-5 single-domain antibody 1F4 (Fc fusion, not shown: a dimerising Fc or GST)
chain (part 1 of 2): QVQLVESGGGSAQAGGSLRLSCAASGNTLDLMAWFRQAPGKEREGVAGIYSSGTTYYADSVKGRFTVSRDNAKNTVYLQMNSLKPEDAAMYYCAAKVSWYGRWYQSETYEYWGQGTQVTVSS
chain (part 2 of 2): HHHHHH
B12: Fc fusion protein of anti-IL-5 single-domain antibody 4B12 (Fc fusion, not shown: a dimerising Fc or GST)
chain (part 1 of 2): QVQLVESGGGSVQPGGSLRLSCAASGNTFSFSTYCMGWFRQSPGKEREGSLATIYDGSTAYAGSVKGRFTVSVDNAKNILYLQMNNLKPEDTAMYYCASAKYCMFWSDPSYWGQGTQVTVSS
chain (part 2 of 2): HHHHHH
B13: Fc fusion protein of anti-IL-5 single-domain antibody 4D5 (Fc fusion, not shown: a dimerising Fc or GST)
chain (part 1 of 2): QVQLVESGGGSVQAGGSLRLSCAASGNTFSTSTYCMGWFRQSPGKEREGSLATIYDGSTAYAGSVKGRFTISVDNAKNILYLQMNNLKPEDTAMYYCAAAKYCMFWSDPSYWGQGTQVTVSS
chain (part 2 of 2): HHHHHH
B14: humanized Fc-fused single-domain antibody 1B3-V1 (Fc fusion, not shown: a dimerising Fc or GST)
chain (part 1 of 2): QVQLVESGGGLVQPGGSLRLSCAASGITASTSCMGWFRQAPGKGLEAVAATIYDGSTYYADSVKGRFTISRDNSKNTLYLQMNSLRAEDTAVYYCAAARYCMFWSHPSYWGQGTLVTVSS
chain (part 2 of 2): HHHHHH
B15: Fc fusion protein of anti-IL-5 single-domain antibody 3G12 (Fc fusion, not shown: a dimerising Fc or GST)
chain (part 1 of 2): QVQLVESGGGSVQAGGSLRLSCVASGLTLNDVSMAWFRQAPGKEREEVAGIDIDGLISYADSVKGRFTISKDNAQNTLYLQMNSLKPEDTAMYSCAAVRLYFSSSRNQYKYEGQGTQVTVSS
chain (part 2 of 2): HHHHHH
B16: Fc fusion protein of anti-IL-5 single-domain antibody 4C3 (Fc fusion, not shown: a dimerising Fc or GST)
chain (part 1 of 2): QVQLVESGGGSVQAGGSLRLSCVASGLTLNDVSMAWFRQAPGKEREEVAGIDIDGLISYADPVKGRFTISKDNAQNTMYLQMNSLKPEDTAMYSCAAVRLYFSSSRNQYKYEGQGTQVTVSS
chain (part 2 of 2): HHHHHH

One assay concerns the target human recombinant IL-5 protein with a histidine tag at carboxyl terminal (human) (UniProt P05113). The assay is described as follows: BLI (Octet 96), binding molecule on sensor, IL-5 antigen 200 nM and 2-fold dilutions.
For the molecule B1, the Kd stood at 0.99 nM, the koff is 8.22e-05 s⁻¹ and the kon turned out to be 82600 M⁻¹ s⁻¹.

For a further assay, the target named is IL-5 protein (Novoprotein, Cat #CS 33) (human) (UniProt P05113). The assay is described as follows: indirect ELISA on IL-5 protein, antibody titrated, OD450. (An ELISA detects its analyte on a solid surface through an enzyme-linked reagent.)
B2 had an EC50 (read off the curve) of 0.8 nM.

A further assay deals with human recombinant IL-5 protein with a histidine tag at carboxyl terminal (human) (UniProt P05113). The assay is described as follows: cell-based or functional assay.
For B3, the EC50 for neutralizing IL-5-induced TF-1 cell proliferation stood at 0.176. With B4, the EC50 for neutralizing IL-5-induced TF-1 cell proliferation amounted to 0.15. Regarding B5, the EC50 for neutralizing IL-5-induced TF-1 cell proliferation came to 0.237. With B6, the EC50 for neutralizing IL-5-induced TF-1 cell proliferation turned out to be 0.188.

With B7, the EC50 for neutralizing IL-5-induced TF-1 cell proliferation amounted to 0.219. Turning to B8, the EC50 for neutralizing IL-5-induced TF-1 cell proliferation is 0.175.

B9: the EC50 for neutralizing IL-5-induced TF-1 cell proliferation worked out at 0.274. Regarding B10, the EC50 for neutralizing IL-5-induced TF-1 cell proliferation was found to be 0.189. Still for that read-out and setting: next, B11: 0.1; B2: 0.0664. For B12, the EC50 for neutralizing IL-5-induced TF-1 cell proliferation was found to be 0.196.

As to B13, the EC50 for neutralizing IL-5-induced TF-1 cell proliferation came out at 0.427.

On to B1, for which the EC50 for neutralizing IL-5-induced TF-1 cell proliferation is 0.234.

Consider B14, for which the EC50 for neutralizing IL-5-induced TF-1 cell proliferation was 2.82. Still for that read-out and setting: next, B15: 2.09; B16: 4.4.

As usually defined, the Kd is a measure of binding affinity in units of concentration. For orientation: koff means the rate constant with which the complex falls apart. A word on the kon: it is the second-order rate constant of association. As a reminder, the EC50 (read off the curve) is the midpoint of the concentration-response curve. A higher EC50 (read off the curve) goes with a need for much substance.
